Results on one molecule are retold here after patent EP1160320A1 (INSTITUT NATIONAL DE LA SANTE ET DE LA RECHERCHE MEDICALE …, dated 2001).

For this assay, the target named is T1, hTAFII80δ (human, UniProt P49848 1-677).
T1 construct: Endogenous protein immunoprecipitated from HeLa extracts; also called hTAFII80 delta; δ isoform of hTAFII80
The assay is described as follows: co-immunoprecipitation of endogenous hTAFII80δ complexes from HeLa cells, immunoblot. Background: A western blot detects proteins with antibodies after separation by electrophoresis.

T1 sequence (P49848 other isoform, or with tags, fused parts or gaps mutant limits assumed): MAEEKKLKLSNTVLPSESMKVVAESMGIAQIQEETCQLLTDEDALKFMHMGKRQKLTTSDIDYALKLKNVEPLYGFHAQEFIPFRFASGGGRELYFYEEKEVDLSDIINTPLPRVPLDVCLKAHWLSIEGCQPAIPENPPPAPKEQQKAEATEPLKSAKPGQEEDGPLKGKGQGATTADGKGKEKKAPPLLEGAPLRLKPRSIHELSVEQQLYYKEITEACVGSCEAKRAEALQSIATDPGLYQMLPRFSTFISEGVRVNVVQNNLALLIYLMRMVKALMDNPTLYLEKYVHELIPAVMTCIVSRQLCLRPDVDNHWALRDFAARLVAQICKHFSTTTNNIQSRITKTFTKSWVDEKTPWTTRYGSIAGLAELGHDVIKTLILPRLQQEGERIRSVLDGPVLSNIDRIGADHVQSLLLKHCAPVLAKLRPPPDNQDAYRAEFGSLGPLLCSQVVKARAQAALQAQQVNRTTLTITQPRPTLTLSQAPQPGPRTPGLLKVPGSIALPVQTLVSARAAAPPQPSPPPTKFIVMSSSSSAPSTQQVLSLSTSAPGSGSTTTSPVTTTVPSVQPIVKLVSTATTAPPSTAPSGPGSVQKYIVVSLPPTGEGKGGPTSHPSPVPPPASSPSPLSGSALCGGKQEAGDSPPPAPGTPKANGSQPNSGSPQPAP

B1: hTAFII31 (other, human, UniProt Q16594 1-264, looked up)
chain: MESGKTASPKSMPKDAQMMAQILKDMGITEYEPRVINQMLEFAFRYVTTILDDAKIYSSHAKKATVDADDVRLAIQCRADQSFTSPPPRDFLLDIARQRNQTPLPLIKPYSGPRLPPDRYCLTAPNYRLKSLQKKASTSAGRITVPRLSVGSVTSRPSTPTLGTPTPQTMSVSTKVGTPMSLTGQRFTVQMPTSQSPAVKASIPATSAVQNVLINPSLIGSKNILITTNMMSSQNTANESSNALKRKREDDDDDDDDDDDYDNL
notes: Baculovirus-produced in SF9 extracts for the pull-down; endogenous in HeLa cells for the co-immunoprecipitation; No tag is stated; also called recombinant hTAFII31; histone H3-like hTAFII31
For the molecule B1, the binding result is recorded as “no binding”.
